The supplement of paper PMC9170038

system: K4 kissing-loop RNA reporter; test: apparent KD of K4 kissing-loop reporter; higher = weaker reporter binding; conditions: Eterna round: R107; input ligand: FMN 200 uM
Experimental: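 RNA-MaP round R107: designed RNA switches with theophylline, tryptophan, arginine or FMN aptamers are transcribed on-chip within common flanks. They are titrated with a labelled K4 kissing-loop RNA reporter in RNA-MaP buffer (100 mM Tris pH 7.5, 80 mM KCl, 4 mM MgCl2), without ligand or with the indicated ligand. Median apparent KD per design.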
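Further: bound reporter read as fluorescence of individual clusters on recovered sequencing chips by microscopy, with normalized cluster intensities fitted with a binding model.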

Sequence | apparent KD of K4 kissing-loop reporter [nM]
AGGCACGAGCAAGGAUAUCGAGUAGAGUGAUGUUCUGCCUGGGUUGGCCCGUAAGGGCCUUCCCAGCGAGAAGGUGCUCGUGCCU [#2 Same State - FMN A Attempt #10 (HarryS)] | 233
AAUAAGGUCGCCGAUACCAGCGCGGGCAGAGCAAAGCUCUGCCCGGUAGUGAUGUUACCGCGCCCUUGGCAGCGGUGGCACGACC [Omei KL Theo B SS C v6] | 152
UGUACCGAGUCAGGAUAUGGCGUCGAAAGACGAAUCCUAGUGAUGUUAGCGAUCUGCGAAAGCAGUCCAGAAGGGACUUGGUACU [FmnBS 26 C50] | 219
CCGGCCCGGCCGGAUACCAGUGCGCCGCAGGGAACGGCGGGCCCAGAGUGAUGUUCGGGACACCCUUGGCAGCCGCCUGGGUCGC [#2 Same State - Theophylline B Attempt #27 (HarryS)] | 286
AUUAAUAUCACGGCCGCCACUGAAUAUUGUUUUUAUAUUUAGAAUAAUUGCCAGUGAUGUUGGAUCAGGACCGGGUGAGUUUAUA [JR_SSTryptoB_Sub007] | 544
AAUGAUGAUUGACACAUUUACUAAAAGGAAGGAGCGGCGAUGUGGCCAGGUAGGUCGCCUUUUAGCAGUGAUGUUGCUAUAUGUU [JR_Nu_ExcArginiA_Sub026] | 84.5
AGUGAUGUUGUGUGAUGUUAGUGAAGUGAUCGAGGACCGGUACGGCCGCCACUCGAGUGAUGAGUGAGUGAUGUUUGUUUAGUGG [#17 K4 Tryptophan A Same State] | 258
AUGAGGAGCAGUGAUCCUACUCCAUGGGAAGGAGCGUAGGAUACUACAGGUAGGUCGCCCAGUGAUGUUGGGCGCGUGCUCUUGG [Isatquesra] | 140
GAUAGUUAGAGAGAUACCAGCGAUACCUAGAUGGAAAGUGAUGUUCGCCAUCAAUUGCACCGCCCUUGGCAGCUCUCUCUUUGCU [theeternabot_exclusion_KL_Theo_B_37] | 995
UGUACCGAGUCAGGAUAUGUCGUCGAAAGACGAAAUGGAGUGAUGUUCCUUAAACUGCGAAAGCAGACAGAAGGGACUUGGUACU [FmnBS 29 #SwitchBubble #StaticStem #DoubleMagnetSystem] | 160
ACCUCACAGUGAUGUUGUGAGCCGAUAGUGAAGGAUAUUGUAAAGUCAAGAAGGUCAUGUCAGUCACAAAACGUUAAGCCUCGCA [theeternabot_exclusion_KL_FMN_A_19] | 275
UGAUACCAGGCGGCCGCCACUCCUACAGGUCAAAGACCUGUAAAGCUGGUUCUCCAGUGAUGUUGGAGGACCGGGCCUGGUAUCU [FiskerMod 29 - Jieux - Exclusion - Tryptophan B] | 206
UUAUAUAUAUUAGAUACCAGUUUAAUGGAAACAAAUUAUGUUAUGAGUGAUGUUCAUGUAAGCCCUUGGCAGCUGGUAUGGGUUU [KL-XTheo-B18] | 235
AGUGAUGUUCCUCCUCUUGGUCUUGGUGGGCGAGGACCGGUACGGCCGCCACUCGAUGUGGGAGUGAUGUUUCCAUAUGAUGUUU [Tryptophan A] | 568
AUUCGUUUAUGUGAUACCAGACUUUGCAGUGAUGUUGCAUUUAUUUUUGAAUUUUAGUUUGUCCCUUGGCAGCACUAUUUAUUUA [JR_SSTheophyB_Sub005] | 44.1
UAGCAUUUGCUCGAGUGAUGUUCGAGCGAAGGAGCGCGAGAAAUCGCAGGUAGGUCGCGCUCGAACUAUGAGCGAUCAUUUAUUG [Arg A Ex t2d] | 363
UGUGGAGAAUAUGAUACCAGCAGAGAGAGAGAGGAAGUAUAGUGAUGUUAUAUGAGAGAAUGCCCUUGGCAGCAUAAGAAGAAGG [SSTheophylB.C] | 144
GAAAGAAAGUAUGAUACCAGACACCCGAGUGAUGUUCGGAGCAGUGUGUUGUUCUUUUAAGUCCCUUGGCAGCAUAAAAGAAAAG [whbob_SS_Theo_B_sa85] | 116
GGUAGCAUGGCGGCCGCCACUAAAACUGGAUCGGAAACGAUCCAGUAAUUUCGAGUGAUGUUCGUUAGGACCGGGCCAUGCUACC | 362
UGGAUAUAGUGAUGUUAUAUAGAGAUGGAUACCAGCGAAGAGAAUUGCCCUUGGCAGCCGAAAGAAGUAUCAUUAGAGAAGAAUG [ExTheophyl.Ah] | 254
AUUUUUUUAUCAGGAUAUUAGUGUUGGUUUGUUUUGUUAGUGAUGUUGAUAUUUGUUUUAUGUAUUUAAGAAGGGAUUGUGAUGU [huupullin] | 473
GAUACCACGUUAGAUACCAGCUUCGUUGACUUGGGUAGUAGUCGAACUUCAGUGAUGUUGAGCCCUUGGCAGCUACAGAUGUGCG [theeternabot_exclusion_KL_Theo_B_38] | 657
AGCGGCGCGCUGGAUACCAGUGUCCGACGCGUUAGUAUAGAUCCAAAGUGAUGUUUUGGUCACCCUUGGCAGCCACCUCUGUCGG [theeternabot_exclusion_KL_Theo_B_29] | 237
CUUAAGGAGUGUCGUGCCGGACACUGGGAAGGAGCGCAAUUCUUUGCAGGUAGGUCGCCCAGUGAUGUUGGGUCUCGCUGUCGAA [KL-XArg-A20] | 139
GACAUAUUCCAGGAUACCAGUGAUCCGCCGCAGCCGAAGACUAGUGAUGUUAGUUUCUGUCACCCUUGGCAGCCUCGAGUCUAAU [theeternabot_sameState_KL_Theo_B_15] | 420
UGACUGGACUGAAGGAGCGUUCAGGUAGGUCGCUAAGGAGUGAUGUUCCAUAGAAGGAGCGAACAGGUAGGUCGCAGUCUAGUCU [ArgBS 29 #DoubleAptamer #SwitchBubble] | 139
